Laboratory results reported in US20160185832A1.

How the values were obtained:
[1] = target: microtubules polymerized in mouse brain homogenate (mouse) (UniProt P05213); assay: microtubule co-sedimentation from mouse brain homogenate, western blot (FIG. 6F)
[2] = target: microtubule network of cultured human cells (hTERT-RPE1, 293T) (human) (UniProt P68363); assay: cell-based or functional assay
[3] = target: pure, pre-polymerized, taxol-stabilized microtubules of bovine tubulin (Cytoskeleton) (bovine) (UniProt P81947); assay: in vitro microtubule co-sedimentation, percent of construct in the microtubule pellet (FIG. 4D)
Chain of pure, pre-polymerized, taxol-stabilized microtubules of bovine tubulin (Cytoskeleton) (bovine) (P81947 whole entry, chain 1 of 2): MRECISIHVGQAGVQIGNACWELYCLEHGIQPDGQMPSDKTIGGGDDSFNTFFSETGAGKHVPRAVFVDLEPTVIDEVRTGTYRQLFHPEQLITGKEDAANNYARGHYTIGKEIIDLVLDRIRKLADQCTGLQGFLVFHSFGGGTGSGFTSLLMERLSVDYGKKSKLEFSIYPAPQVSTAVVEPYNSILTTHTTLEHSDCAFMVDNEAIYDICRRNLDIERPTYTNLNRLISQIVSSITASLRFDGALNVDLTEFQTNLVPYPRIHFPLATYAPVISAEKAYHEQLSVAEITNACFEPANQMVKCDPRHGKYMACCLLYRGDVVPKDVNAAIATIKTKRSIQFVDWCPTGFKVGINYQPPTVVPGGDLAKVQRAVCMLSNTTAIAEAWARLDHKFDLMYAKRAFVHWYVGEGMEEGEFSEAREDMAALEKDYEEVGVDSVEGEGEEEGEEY
Chain of pure, pre-polymerized, taxol-stabilized microtubules of bovine tubulin (Cytoskeleton) (bovine) (Q6B856 whole entry, chain 2 of 2, further chain): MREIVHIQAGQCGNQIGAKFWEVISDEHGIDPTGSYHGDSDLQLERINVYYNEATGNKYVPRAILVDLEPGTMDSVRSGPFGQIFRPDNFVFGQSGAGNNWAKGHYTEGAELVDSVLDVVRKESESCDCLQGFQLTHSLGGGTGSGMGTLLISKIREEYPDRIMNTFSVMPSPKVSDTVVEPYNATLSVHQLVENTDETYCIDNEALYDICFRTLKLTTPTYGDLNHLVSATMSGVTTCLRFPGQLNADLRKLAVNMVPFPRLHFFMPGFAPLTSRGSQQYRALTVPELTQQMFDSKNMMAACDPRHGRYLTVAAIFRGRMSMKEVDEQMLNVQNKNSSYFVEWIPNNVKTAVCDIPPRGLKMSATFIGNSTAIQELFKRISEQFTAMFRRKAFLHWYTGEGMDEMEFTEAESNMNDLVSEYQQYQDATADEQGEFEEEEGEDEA

Chain of microtubule network of cultured human cells (hTERT-RPE1, 293T) (human) (P68363 whole entry, chain 1 of 2): as the sequence (P81947 whole entry, chain 1 of 2) above
Chain of microtubule network of cultured human cells (hTERT-RPE1, 293T) (human) (P07437 whole entry, chain 2 of 2, further chain): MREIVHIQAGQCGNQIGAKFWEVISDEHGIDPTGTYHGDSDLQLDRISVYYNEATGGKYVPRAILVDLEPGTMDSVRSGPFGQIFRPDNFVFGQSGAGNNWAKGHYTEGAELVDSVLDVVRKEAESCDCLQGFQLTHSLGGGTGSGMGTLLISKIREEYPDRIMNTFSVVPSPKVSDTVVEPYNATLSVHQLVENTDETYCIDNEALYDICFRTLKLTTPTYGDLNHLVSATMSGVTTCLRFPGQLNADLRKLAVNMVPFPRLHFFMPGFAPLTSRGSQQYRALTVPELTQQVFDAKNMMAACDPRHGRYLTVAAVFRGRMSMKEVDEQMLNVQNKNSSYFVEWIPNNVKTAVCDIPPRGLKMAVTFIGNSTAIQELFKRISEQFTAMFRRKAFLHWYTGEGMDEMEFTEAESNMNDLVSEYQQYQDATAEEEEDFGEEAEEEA
Chain of microtubules polymerized in mouse brain homogenate (mouse) (P05213 whole entry, chain 1 of 2): as the sequence (P81947 whole entry, chain 1 of 2) above
Chain of microtubules polymerized in mouse brain homogenate (mouse) (Q9CWF2 whole entry, chain 2 of 2, further chain): as the sequence (Q6B856 whole entry, chain 2 of 2, further chain) above

percent associated with microtubules [1] | percent of transfected cells with increased microtubule acetylation and bundling [2] | percent of transfected hTERT-RPE1 cells with a fibrillar localization pattern [2] | percent associated with microtubules [3] | Substance
60% | – | – | – | full length wild type (WT) mouse Cep290 from mouse brain homogenate, Q6A078 1-2472
– | 40% | 10% | < 50% | GFP fusion of full length human CEP290 (aa 1-2479), O15078 1-2479
